Patent publication US20230303667A1

B1: 5.6.c2618 (antibody, V domains shown)
VH: QVQLVQSGAEVKKPGASVNLSCKGSGYSFRTYYIHWVRQAPGQGLEWMGIINSSGGGTTYAQKFQGRVTMTRDTSTSTVYMELRSLKYEDTAMYYCARDRFPTVSGEPFAMDVWGQGTTVTVSS
VL: EVVLTQSPVTLSLSPGERATLSCRASQSVSGYLAWYQQKPGQVPRLLIYDTSNRATGIPARFSGSGSGTDFTLTISTIEPEDFAVYYCQQRSKWGVTFGGGTKVDIK
B2: 9.6.1A09 (antibody, V domains shown)
VH: EVQLVESGGGLVQPGGSLRLSCAASGFTFRSYDMDWFRQSTGKGLEWVSAIGSAGDTYYTDSVKGRFTISRENGKNSLYLQMNSLRAGDTAVYYCARARFGDNVFDLWGRGTLVTVSS
VL: DIVMTQSPDSLAVSLGERASINCKSSQSVLSSSNTKNYLAWYQHKPGQPPKLLIYWASTRESGVPDRFSGSGSGTDFTLTISSLQPEDVAVYYCQQYYGAPYTFGQGTKVEIK
B3: 2.10.1E06 (antibody, V domains shown)
VH: EVQLVESGGGLIQPGGSLRLSCTASGFTFSKFAMSWVRQAPGRGLEWISYISGGSKTKYYADSVRGRFTISRDNAKGSLFLQMNSLRAEDTAIYFCAKKGWQSTFLGMDYFYGMDVWGKGTTVTVSS
VL: EIVLTQSPGTLSLSPGERATLSCRASQSVTSNYLAWYQQKPGQAPRVLIYGASSRATGIPDRFSGSGSGTDFTLTISRLEPEDFAVYYCQQFGASPPYSFGQGTKVEIK
B4: 9.6.3A06 (antibody, V domains shown)
VH: EVQLLESGGGLVKPGGSLRLSCAASGFTFNEYMMNWVRQPPGKGLEWVSSISGTSTYINYADSVKGRFTISRDNAKNSLYLQMNSLRSDDTAMYYCARGSTGGYWGQGTLITVSS
VL: DIVMTQTPLSSAVTLGQPASISCRSSQRLVHSDGNTYLSWLHQRPGQPPRLLIYKVSLRFSGVPDRFSGSGAGTDFTLKISRVEAEDVGIYYCMQATQFPLTFGGGTKVEIK
B5: 5.1.13G03 (antibody, V domains shown)
VH: QVQLQESGPGLVKPSGTLSLTCAVSGGSISSTNWWSWVRQPPGKGLEWIGEIYHSGSTNYNPSLKSRVTISLDKSKDQFSLKLSSVTAADTAVYYCAYSNTWTGGWGQGTLVTVSS
VL: DIQMTQSPSSLSASVGDRVTITCRASQSISSYLNWYQQKPGKAPKVLIYSAFSLQNGVPSRFSGSGSGTDFTLTISSLQPEDFATYYCQQSYSTPRTFGQGTKVEIK
B6: 5.1.7D03 (antibody, V domains shown)
VH: EVQLVQSGGGLAQPGGSLRLSCAASGFTFRSYDMHWVRQVTGKGLEWVSAIGTAGDTYYTGSVKGRFTISRENDKSSLYLQMSSLRGEDTAVYYCARAAFGSHYFDYWGQGTLVTVSS
VL: EIVLTQSPGTLSLSPGERAALSCRASQSVSGNYFAWYQQKSGQAPRLLISAASSRATGVPDRFSASGSGTDFTLTISRLEPEDSAVYYCQQYGSSPLTFGQGTKVEIK

target: Ebola Zaire (Kikwit strain) glycoprotein (Ebola Zaire (Kikwit strain)) (UniProt P87666); experiment: cell-based or functional assay
Sequence (P87666 33-676 limits assumed): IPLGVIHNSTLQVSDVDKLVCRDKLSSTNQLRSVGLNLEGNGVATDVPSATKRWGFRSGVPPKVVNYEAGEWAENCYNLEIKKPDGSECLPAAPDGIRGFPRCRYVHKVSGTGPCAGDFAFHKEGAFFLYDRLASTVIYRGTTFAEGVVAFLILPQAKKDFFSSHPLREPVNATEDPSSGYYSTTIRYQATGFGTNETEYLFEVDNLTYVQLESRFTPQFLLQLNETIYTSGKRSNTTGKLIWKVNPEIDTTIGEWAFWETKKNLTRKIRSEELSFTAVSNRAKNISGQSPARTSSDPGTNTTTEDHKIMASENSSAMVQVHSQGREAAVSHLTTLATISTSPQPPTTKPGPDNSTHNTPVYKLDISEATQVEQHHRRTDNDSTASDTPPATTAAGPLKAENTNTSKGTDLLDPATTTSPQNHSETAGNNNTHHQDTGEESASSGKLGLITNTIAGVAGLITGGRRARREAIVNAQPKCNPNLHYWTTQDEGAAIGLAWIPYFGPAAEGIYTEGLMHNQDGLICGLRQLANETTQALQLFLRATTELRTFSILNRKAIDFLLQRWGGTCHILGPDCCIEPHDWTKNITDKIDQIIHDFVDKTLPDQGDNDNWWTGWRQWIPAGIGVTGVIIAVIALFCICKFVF

Binder	PRNT50 (ug/ml) for Ebola Zaire (Kikwit strain)
B1	0.0061 µg/mL
B2	0.781 µg/mL
B3	0.781 µg/mL
B4	0.0488 µg/mL
B5	0.0978 µg/mL
B6	1.57 µg/mL
